The Human Domainome abundance scans (Beltran et al. 2025)

B1: Unconventional myosin-Ie, residues 1051 to 1108; numbered along this chain, Q12965 (parent)
chain: PQVPQCKALYAYDAQDTDELSFNANDIIDIIKEDPSGWWTGRLRGKQGLFPNNYVTKI

Variants of: B1
Experiment: abundance fitness (aPCA) (normalised: wild type 0, dead -1); higher = more abundant; growth selection in yeast, the domain comes from the species named
Details: Homo sapiens

Abundance fitness of substitutions, site by site:
Q15: Y -0.312 | F -0.291 | A -0.087 | M -0.059 | E -0.23 | W -0.408 | P -0.484 | R -0.035 | I -0.172 | K -0.186 | D -0.145 | S -0.261 | T -0.054 | G -0.157 | V -0.193 | N 0.037 | L -0.173
T17: A 0.026 | P -0.273 | L -0.239 | M -0.043 | K -0.18 | S -0.077 | Q -0.078 | E -0.272 | F -0.287 | C -0.128 | H -0.137 | W -0.091 | R -0.111 | G -0.057 | D -0.007 | N -0.423 | Y -0.238
C6: M -0.172 | W -0.571 | A 0.097 | L -0.866 | P -0.96 | I -0.67 | V -0.001 | D -0.807 | G 0 | H -0.839 | S -0.448 | T -0.768 | K -1 | R -0.818
Q5: K -0.075 | S -0.065 | L -0.135 | V -0.065 | I -0.072 | E -0.467 | C -0.269 | W -0.281 | A -0.245 | T 0.01 | N -0.062 | F -0.158 | P -0.739 | Y -0.007 | M -0.041 | R 0.023
A14: N -0.452 | M -0.42 | D -0.797 | F -0.782 | T -0.374 | L -0.98 | R -0.377 | E -0.695 | K -0.195 | C -0.284 | W -1.13 | H -0.741 | V -0.871 | Q -0.345 | G -0.173 | I -0.901 | S -0.188 | P -0.371
Y10: W -0.092 | H -0.135 | R 0.056 | V -0.121 | L -0.16 | P -0.821 | D -0.247 | C -0.14 | N -0.472 | Q -0.054 | A -0.186 | K -0.043 | T -0.218 | S -0.166 | I -0.364 | F -0.151 | G -0.309 | E -0.217 | M -0.158
D16: Y -0.093 | T -0.024 | P -0.798 | V -0.169 | C -0.057 | Q -0.22 | E -0.097 | G -0.156 | I -0.557 | W -0.231 | H -0.206 | K -0.069 | A -0.055 | M -0.098 | L -0.271 | N -0.052 | F -0.19
A11: D 0.102 | C -0.193 | H -0.013 | F -0.388 | L -0.308 | S -0.023 | P 0.019 | R 0.025 | E -0.059 | G -0.186 | N 0.022 | T -0.218 | M -0.149 | Q 0.045
L9: S -0.3 | C -0.222 | T -0.491 | I -0.375 | W -0.588 | A -0.315 | G -0.624 | Y -0.701 | P -0.822 | E -0.149 | Q -0.268 | F -0.743 | H -0.367 | N -0.232 | M -0.213 | D -0.451 | V -0.148 | K -0.187 | R -0.291
S21: H -0.931 | K -0.266 | C -0.219 | G -0.358 | Y -0.756 | F -0.938 | V -0.891 | A -0.263 | D -0.217 | Q -0.325 | L -0.939 | W -0.559 | N -0.175 | T -0.058 | M -0.803 | E -0.247
